33 molecules from patent US20240294593A1 (Genentech, published 2024) can be followed below.

Numbering of substitutions follows the chain as printed. In names and notes the source's numbering stands.

The chains are these.
B1: H1.72_L1 (antibody, human IgG1, kappa, V domains shown)
VH: EVQLVESGGGLVQPGGSLRLSCAASGFTFSSFGMHWVRQAPGKGLEWVSYISSGSAIIYYADSVKGRFTISRDNAKNSLYLQMNSLRAEDTAVYYCARGGRLVWSPDYWGQGTLVTVSS
VL: DIVMTQSPDSLAVSLGERATINCKSSQSLLNSGNQKNYLTWYQQKPGQPPKLLIYWASTRESGVPDRFTGSGSGTDFTLTISSLQAEDVAVYYCQNDYSYPFTFGSGTKLEIKR
notes: also called VH-S60A; Kabat 55; copies: 2 + 2
B2: H1.71_L1 (antibody, human IgG1, kappa, V domains shown)
VH: B1 VH with A56T
VL: B1 VL
notes: also called VH-S60T; Kabat 55; copies: 2 + 2
B3: H1.1_L1 (antibody, human IgG1, kappa, V domains shown)
VH: B1 VH with S30T, A56S
VL: B1 VL
notes: also called VH-S30T; Kabat 30T; copies: 2 + 2
B4: H1.23_L1 (antibody, human IgG1, kappa, V domains shown)
VH: B1 VH with F32Q, A56S
VL: B1 VL
notes: also called VH-F34Q; Kabat 32Q
B5: H1.3_L1 (antibody, human IgG1, kappa, V domains shown)
VH: B1 VH with S30Q, A56S
VL: B1 VL
notes: also called VH-S30Q; Kabat 30Q; copies: 2 + 2
B6: H1.16_L1 (antibody, human IgG1, kappa, V domains shown)
VH: B1 VH with S31K, A56S
VL: B1 VL
notes: also called VH-S31K; Kabat 31K; copies: 2 + 2
B7: H1.15_L1 (antibody, human IgG1, kappa, V domains shown)
VH: B1 VH with S31D, A56S
VL: B1 VL
notes: also called VH-S31D; Kabat 31D; copies: 2 + 2
B8: H1.24_L1 (antibody, human IgG1, kappa, V domains shown)
VH: B1 VH with F32S, A56S
VL: B1 VL
notes: also called VH-F34S; Kabat 32S; copies: 2 + 2
B9: H1.2_L1 (antibody, human IgG1, kappa, V domains shown)
VH: B1 VH with S30A, A56S
VL: B1 VL
notes: also called VH-S30A; Kabat 30A; copies: 2 + 2
B10: H1.7_L1 (antibody, human IgG1, kappa, V domains shown)
VH: B1 VH with S30K, A56S
VL: B1 VL
notes: also called VH-S30K; Kabat 30K; copies: 2 + 2
B11: H1.27_L1 (antibody, human IgG1, kappa, V domains shown)
VH: B1 VH with G33S, A56S
VL: B1 VL
notes: also called VH-G35S; Kabat 33S; copies: 2 + 2
B12: H1.8_L1 (antibody, human IgG1, kappa, V domains shown)
VH: B1 VH with S30Y, A56S
VL: B1 VL
notes: also called VH-S30Y; Kabat 30Y
B13: H1.28_L1 (antibody, human IgG1, kappa, V domains shown)
VH: B1 VH with G33T, A56S
VL: B1 VL
notes: also called VH-G35T; Kabat 33T; copies: 2 + 2
B14: H1.12_L1 (antibody, human IgG1, kappa, V domains shown)
VH: B1 VH with S31G, A56S
VL: B1 VL
notes: also called VH-S31G; Kabat 31G; copies: 2 + 2
B15: H1.18_L1 (antibody, human IgG1, kappa, V domains shown)
VH: B1 VH with F32Y, A56S
VL: B1 VL
notes: also called VH-F34Y; Kabat 32Y; copies: 2 + 2
B16: H1.29_L1 (antibody, human IgG1, kappa, V domains shown)
VH: B1 VH with G33N, A56S
VL: B1 VL
notes: also called VH-G35N; Kabat 33N
B17: H1.21_L1 (antibody, human IgG1, kappa, V domains shown)
VH: B1 VH with F32I, A56S
VL: B1 VL
notes: also called VH-F34I; Kabat 32I; copies: 2 + 2
B18: H1.5_L1 (antibody, human IgG1, kappa, V domains shown)
VH: B1 VH with S30V, A56S
VL: B1 VL
notes: also called VH-S30V; Kabat 30V; copies: 2 + 2
B19: H1.26_L1 (antibody, human IgG1, kappa, V domains shown)
VH: B1 VH with G33A, A56S
VL: B1 VL
notes: also called VH-G35A; Kabat 33A; copies: 2 + 2
B20: H1.30_L1 (antibody, human IgG1, kappa, V domains shown)
VH: B1 VH with G33H, A56S
VL: B1 VL
notes: also called VH-G35H; Kabat 33H
B21: H1.31_L1 (antibody, human IgG1, kappa, V domains shown)
VH: B1 VH with G33D, A56S
VL: B1 VL
notes: also called VH-G35D; Kabat 33D; copies: 2 + 2
B22: H1.17_L1 (antibody, human IgG1, kappa, V domains shown)
VH: B1 VH with S31Y, A56S
VL: B1 VL
notes: also called VH-S31Y; Kabat 31Y; copies: 2 + 2
B23: H1.22_L1 (antibody, human IgG1, kappa, V domains shown)
VH: B1 VH with F32H, A56S
VL: B1 VL
notes: also called VH-F34H; Kabat 32H; copies: 2 + 2
B24: H1.25_L1 (antibody, human IgG1, kappa, V domains shown)
VH: B1 VH with F32K, A56S
VL: B1 VL
notes: also called VH-F34K; Kabat 32K; copies: 2 + 2
B25: H1.13_L1 (antibody, human IgG1, kappa, V domains shown)
VH: B1 VH with S31V, A56S
VL: B1 VL
notes: also called VH-S31V; Kabat 31V; copies: 2 + 2
B26: H1.4_L1 (antibody, human IgG1, kappa, V domains shown)
VH: B1 VH with S30G, A56S
VL: B1 VL
notes: also called VH-S30G; Kabat 30G; copies: 2 + 2
B27: H1.14_L1 (antibody, human IgG1, kappa, V domains shown)
VH: B1 VH with S31H, A56S
VL: B1 VL
notes: also called VH-S31H; Kabat 31H; copies: 2 + 2
B28: H1.36_L1 (antibody, human IgG1, kappa, V domains shown)
VH: B1 VH with S52T, A56S
VL: B1 VL
notes: also called VH-S54T; Kabat 52T; copies: 2 + 2
B29: H1.20_L1 (antibody, human IgG1, kappa, V domains shown)
VH: B1 VH with F32W, A56S
VL: B1 VL
notes: also called VH-F34W; Kabat 32W; copies: 2 + 2
B30: H1.6_L1 (antibody, human IgG1, kappa, V domains shown)
VH: B1 VH with S30H, A56S
VL: B1 VL
notes: also called VH-S30H; Kabat 30H; copies: 2 + 2
B31: H1.9_L1 (antibody, human IgG1, kappa, V domains shown)
VH: B1 VH with S31T, A56S
VL: B1 VL
notes: also called VH-S31T; Kabat 31T; copies: 2 + 2
B32: H1.11_L1 (antibody, human IgG1, kappa, V domains shown)
VH: B1 VH with S31Q, A56S
VL: B1 VL
notes: also called VH-S31Q; Kabat 31Q; copies: 2 + 2
B33: H1.10_L1 (antibody, human IgG1, kappa, V domains shown)
VH: B1 VH with S31A, A56S
VL: B1 VL
notes: also called VH-S31A; Kabat 31A; copies: 2 + 2

T1 sequence (Q15116 25-167 limits assumed): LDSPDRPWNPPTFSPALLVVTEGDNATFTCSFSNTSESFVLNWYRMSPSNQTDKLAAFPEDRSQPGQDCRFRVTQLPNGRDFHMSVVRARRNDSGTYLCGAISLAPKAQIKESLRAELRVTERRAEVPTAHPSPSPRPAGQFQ

One assay has as its target T1, human PD-1-His (human, UniProt Q15116 25-167, limits assumed).
T1 construct: Antigen of the Octet assays; not shown: His tag
As to the kind of experiment: Octet. On the technique in general: In BLI a coated tip is dipped into the sample, and binding shifts an interference pattern.
For B1, the Kd amounted to 62.5 nM, the koff turned out to be 0.00701 s⁻¹ and the kon turned out to be 112000 M⁻¹ s⁻¹.
The like results for B2 were, in that order, 45.8 nM, 0.00505 s⁻¹ and 110000 M⁻¹ s⁻¹.

Another assay addresses T1, human PD-1-His. As to the kind of experiment: Octet. The source holds these as a separate data set.
The molecule B3 came in with a Kd of 32.1 nM, a koff of 0.00407 s⁻¹ and a kon of 127000 M⁻¹ s⁻¹.
Take B4: binding was put at a Kd of 73.4 nM, the koff is 0.00863 s⁻¹ and the kon came out at 118000 M⁻¹ s⁻¹.
Consider B5, for which binding was put at a Kd of 40 nM, the koff is 0.00472 s⁻¹ and the kon amounted to 118000 M⁻¹ s⁻¹.
On the same counts, the results for B6 are 47.1 nM, 0.00514 s⁻¹ and 109000 M⁻¹ s⁻¹.
On the same counts, the results for B7 are 40 nM, 0.00557 s⁻¹ and 139000 M⁻¹ s⁻¹.
The like results for B8 were, in that order, 54.9 nM, 0.00688 s⁻¹ and 125000 M⁻¹ s⁻¹.
B9 showed a Kd of 35.6 nM, an off-rate constant (koff) of 0.00432 s⁻¹ and a kon of 121000 M⁻¹ s⁻¹.
For the molecule B10, the Kd is 52.5 nM, the koff worked out at 0.00545 s⁻¹ and the kon turned out to be 104000 M⁻¹ s⁻¹.
In turn, B11 displayed a Kd of 104 nM, a koff of 0.0142 s⁻¹ and a kon of 137000 M⁻¹ s⁻¹.
The molecule B12 showed an equilibrium dissociation constant (Kd) of 51.3 nM, a dissociation rate constant (koff) of 0.00534 s⁻¹ and a kon of 104000 M⁻¹ s⁻¹.
In turn, B13 yielded a dissociation constant (Kd) of 92.7 nM, a koff of 0.0279 s⁻¹ and a kon of 301000 M⁻¹ s⁻¹.
As to B14, the Kd was determined as 44.2 nM, the koff is 0.00537 s⁻¹ and the kon was determined as 122000 M⁻¹ s⁻¹.
For B15, the Kd turned out to be 47.9 nM, the koff stood at 0.00597 s⁻¹ and the kon worked out at 125000 M⁻¹ s⁻¹.
In turn, B16 had a Kd of 223 nM, a koff of 0.0437 s⁻¹ and a kon of 196000 M⁻¹ s⁻¹.
The molecule B17 had a Kd of 27.2 nM, a koff of 0.00371 s⁻¹ and a kon of 137000 M⁻¹ s⁻¹.
Molecule B18 came in with a Kd of 37.4 nM, a koff of 0.00475 s⁻¹ and a kon of 127000 M⁻¹ s⁻¹.
The molecule B19 had a Kd of 193 nM, a koff of 0.036 s⁻¹ and a kon of 187000 M⁻¹ s⁻¹.
In the case of B20, binding was characterised by a dissociation constant (Kd) of 76.4 nM, the koff worked out at 0.0257 s⁻¹ and the kon was found to be 337000 M⁻¹ s⁻¹.
The like results for B21 were, in that order, 56.4 nM, 0.0401 s⁻¹ and 711000 M⁻¹ s⁻¹.
In turn, B22 came in with a Kd of 50.4 nM, a koff of 0.00534 s⁻¹ and a kon of 106000 M⁻¹ s⁻¹.
On the same counts, the results for B23 are 34 nM, 0.00358 s⁻¹ and 105000 M⁻¹ s⁻¹.
As for B24, binding was characterised by a dissociation constant (Kd) of 113 nM, the koff was 0.012 s⁻¹ and the kon amounted to 107000 M⁻¹ s⁻¹.
B25 returned a Kd of 50.2 nM, a koff of 0.00634 s⁻¹ and a kon of 126000 M⁻¹ s⁻¹.
The molecule B26 had a Kd of 34 nM, a koff of 0.00422 s⁻¹ and a kon of 124000 M⁻¹ s⁻¹.
B27: the Kd came out at 45.8 nM, the dissociation rate constant (koff) stood at 0.00546 s⁻¹ and the kon was found to be 119000 M⁻¹ s⁻¹.
The like results for B28 were, in that order, 374 nM, 0.046 s⁻¹ and 123000 M⁻¹ s⁻¹.
Molecule B29 yielded a Kd of 162 nM, a koff of 0.0204 s⁻¹ and a kon of 126000 M⁻¹ s⁻¹.
On the same counts, the results for B30 are 48.5 nM, 0.00529 s⁻¹ and 109000 M⁻¹ s⁻¹.
As for B31, the Kd came to 46.9 nM, the koff is 0.00567 s⁻¹ and the kon was determined as 121000 M⁻¹ s⁻¹.
For B32, the Kd is 36.8 nM, the koff is 0.00454 s⁻¹ and the kon came to 123000 M⁻¹ s⁻¹.
In turn, B33 returned a Kd of 36.9 nM, a koff of 0.00425 s⁻¹ and a kon of 115000 M⁻¹ s⁻¹.

A word on the Kd: it is the equilibrium constant for the complex coming apart. High values mean lower affinity, low ones higher affinity. A word on the koff: it is a measure of how fast the partners let go of each other. The low end stands for slow dissociation, the high end for fast dissociation. By kon is commonly meant the rate constant with which the complex forms.
